This note sets out measurements from article PMC2173577.

The target of the assay is Grb2, endogenous in Cos-7 cells (African green monkey (endogenous in Cos-7)). As to the kind of experiment: co-IP.

“Sos-1, endogenous in Cos-7 cells (natural protein)”: the fold excess of the Sos-1–Grb2 complex over the Sos-1–E3b1 complex (co-IP) was determined as 10 fold.
